Assay results as given in patent US20130110249A1 (UNIVERSITY OF ROCHESTER, published 2013).

B1: anti-Gmd monoclonal antibody 1C11 (antibody, V domains shown)
VH: QIQLVQSGPELKKPGETVKISCKASGYTFTTYGMSWVNQAPGKGLKWMGWINTYSGVPTYADDFKGRFVFSLETSASTAYLQINNLKNEDTATYFCAREEYSSGYAAWFPYWGQGTLVTVSA
VL: DIVLTQSPATLSVTPGDSVSLSCRASQSISNNLHWYQQKSHESPRLLIEYASRSISGIPSRFSGGGSGTDFTLSINSVESEDFGLYFCQQSNSWPLTFGAGTKLELK
notes: also called mAb 1C11; mouse 1C11
B2: anti-Gmd monoclonal antibody 3A8 (antibody, V domains shown)
VH: EVQLQESGGGLVQPGGSMKLSCAASGFTFSDAWMDWVRQSPEKGLEWVAEIKDKTNNHATYYAESVKGRFTISRDVSKSRVFLQMNSLRPEDTGIYYCTSGPYFDYWGQGTTLTVSS
VL: DIVMTQSHKFMSTSVGDRVSITCKASQDVSTAVAWYQQKPGQSPKLLIYWTSTRHTGVPDRFTGSGSGTDFTLTISSVQAKDLALYYCQQHYTTPYTFGGGTKLEIK
notes: also called mAb 3A8; hybridoma 3A8

How the values were obtained:
[1] = biological target: T1, recombinant His-glucosaminidase (His-Gmd) of Staphylococcus aureus autolysin (Staphylococcus aureus, UniProt A7X0T9 775-1254); experiment: method not stated; hybridomas screened by ELISA and western dot-blot
T1 construct: also called Gmd-His; recombinant Gmd
T1 sequence: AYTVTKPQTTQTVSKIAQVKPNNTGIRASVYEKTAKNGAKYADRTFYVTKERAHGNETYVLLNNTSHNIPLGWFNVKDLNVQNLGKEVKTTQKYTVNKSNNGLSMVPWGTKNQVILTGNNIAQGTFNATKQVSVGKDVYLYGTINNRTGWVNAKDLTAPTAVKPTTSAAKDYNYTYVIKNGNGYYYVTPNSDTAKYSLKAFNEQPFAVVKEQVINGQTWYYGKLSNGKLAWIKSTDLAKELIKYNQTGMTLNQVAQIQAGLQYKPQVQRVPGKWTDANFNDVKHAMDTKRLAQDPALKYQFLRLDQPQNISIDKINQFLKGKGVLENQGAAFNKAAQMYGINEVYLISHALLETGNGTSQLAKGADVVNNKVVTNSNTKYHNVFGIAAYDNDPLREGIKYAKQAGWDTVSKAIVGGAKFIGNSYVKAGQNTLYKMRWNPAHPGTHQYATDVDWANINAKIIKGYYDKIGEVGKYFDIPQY

[2] = biological target: T2, native Gmd of S. aureus Xen29 (Staphylococcus aureus, UniProt P0C5Z8 776-1255, limits assumed); experiment: estimate from the dose dependence of the Xen29 growth (light scattering) assay, assuming about ten times the Kd is required
T2 construct: domain: glucosaminidase (Gmd) subunit of autolysin
T2 sequence (looked up): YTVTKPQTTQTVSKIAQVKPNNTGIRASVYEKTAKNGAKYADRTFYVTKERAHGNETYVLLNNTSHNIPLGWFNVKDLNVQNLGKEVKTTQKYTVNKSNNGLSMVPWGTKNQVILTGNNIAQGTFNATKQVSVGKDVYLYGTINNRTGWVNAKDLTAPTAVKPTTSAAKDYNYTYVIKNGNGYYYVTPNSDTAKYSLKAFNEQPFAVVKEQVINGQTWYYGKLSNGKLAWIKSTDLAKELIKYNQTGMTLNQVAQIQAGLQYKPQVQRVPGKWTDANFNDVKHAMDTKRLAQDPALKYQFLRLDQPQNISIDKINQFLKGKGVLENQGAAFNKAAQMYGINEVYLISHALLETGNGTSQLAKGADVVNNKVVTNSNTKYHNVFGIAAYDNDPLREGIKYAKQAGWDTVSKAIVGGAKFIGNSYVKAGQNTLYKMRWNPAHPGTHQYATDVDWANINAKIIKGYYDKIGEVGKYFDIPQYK

| Binder | Kd [1] [nM] | Kd [2] [nM] |
| --- | --- | --- |
| B1 | ≤ 1 | ~1 |
| B2 | ≤ 1 | ~1 |
